The values that follow come from the DeepSol protein solubility set.

The data set in a line: soluble on expression in E. coli; label from the status in PepcDB or PDB records.
As for “MAHHHHHHMLKACLPRHLRVTPLLRVWAAEEDDANAPPTTFKNVKPGRLLRLWRQIRQRAWVAFTWDEEWTSPGSEGYLHQQRLEQVCFAPLSAYGMVPGSYCDPLLYNTKNTSPFRWHVANTSSDIVGHWYMEADEIFRIKDWQPKNPDDPTEMFPRPPQQILKWDETVDEHGNRTFRYKYRYDFMGPTGMWEAYPRYPFSHLYLNGQDHHGRAEGYGFKQGHLLRCSEEEEEVLRRIMEEEDKEWEMVKRTEVVQEPWSYPGKIRPQDFNGAVERAKARFREQIKQGKETDPSEDPDYDLVQAGEYVEPRDGPRAEWRHLWTSNRAKGEPLPYQVTFNDGITFEDNEEKPPVHPASHYEVKPKEAPYKKYEEQDTKEADEKQKKLKEQWEKSFEESISRHEKTVGDGKTSGGNSDSRSSGSAADSGAKEPPK”, the “soluble on expression in E. coli” value is reported as “not soluble”.
In the case of “MAHHHHHHMLKCVSRVFLGAKTVPLNPHVPFKLHTAGRDDLPPIPTTATYEPEKIKENLAMMIRIRRVEALADQSYKLKKIRGFCHLCIGQEAIPVGMENVLSRGDPVVTGYRDHGLFMTRGGTIEELFAELFGREGGCSKGKGGSMHMYRVKENFYGGNGIVGAQAPLGAGLAWRYALENRDKPSNVAVTFYGDGAANQGQVFEAMNIAALQRIPVIFCCENNHYGMGTREDRAAYQPQMYRRGDYIPGLRVDGMDVLAVQEGTRWAKEWCLAGKGPVVLEMDSYRYMGHSMSDPDSQYRTKNDIQEVRRTRDCIEKMKEFVVSEGIMTVEEIKQMEKDVKKEVDKELPPAEKQAITPLKELFTDIYCGEQYEHRTTQGTVYAKP” it was “not soluble”; in that of “MAHHHHHHMLNALGITSPRHDALIAKFLKAMAVEGGASEATKRDEAVDAARFVYVFSTVWRAAVTHRTPRSPVSTRVSAPPRSPPAAQQHGNSPDGATMRHAYSREVSCRGAPPSHMKAAPATEVGSSGGSGSAVSARSSSSPSAVWSSSEGGEGAAHSHTESASPLTSCGGGDERRSDAAESDADFLRTNISDASSSIPDSSEKPQAGVRSEELSPMSVEPSAGLDPSPEPCNPGEPVIITSARSSVTPRTHHCSPFAAASRLGSASVSRSRRMSSSLRVIPSDSHLLSSTTSRELKRATKRVPGGLMRECTFKPVINSVYEQSPVSFSSTAIVQKRKPASTAPPTFQPNTQQFHQARDSLARWTRQPIKDNSDYRGEAAANPLATGVETAVRRMIAARQQRQRSQSPRPSLQKGSHHSAPAPQSTVRAPVAHPRKPLLYVDVDLPQGQRDRLALYTGDDVQDVAQRFSILHGLSESLCQRLETALTAELCALSVGKAA”, “not soluble”.
As to “MAHHHHHHMLNKGFTATKIIGKRCFQWWDNLNTSWKFAIGFSVLFPPLWNYNERRKAREKQVYYNKSIRDYVFFDIAIENKYVGRVLIGLYSDQVPLSVENFIQLAEGYKVKDKYIGYRNTFIHKIYPGIGLVGGNVLNDKEGLSIYGKKFPDENFDMEFVQDGDVALFNEGPHSNSSQFIITFSPMPILHKHNVVIGTVLKGMDIIRMIENVGTKLGNPMYNVKIINCGLYRSLEQDGPPFFNMMHISDKGNKNIISKKEFESLSEQQRQSLMEEIGKSEKRR”, the “soluble on expression in E. coli” value is reported as “soluble”.
As for “MAHHHHHHMLNRSRLRRVWLGGTAANTSLGRDVMPSTGKYINIVSPTDVAANISAGAMPPEANVAAALPVPRIQYSKWNRALRSDVYDELLKLPLRYKLHDFAKLCPPQRCQEEPEAVGVVGRDSAVGYLPPLGPADPLDTIPFFVHRSSNGVLPGKVFSMHPRNLMPAFYLRIQQVEGDMFRFEEELLKIFPTKKIFVRSHSIYVYNVALDGRMVLHHWLLGLGF”, the “soluble on expression in E. coli” value is reported as “not soluble”.
To “MAHHHHHHMLPRGEQHVSVAGSDDYMDDAASALLSELQQVVVRVSHQMVEERRRAAQQRKQIRALEAIVAEQDAMLDALRTQCDAAQCEKSRLLKSYQQELRWRGADPVQAARRSRDICGTSGTHVSAAQVDNVVQAEFRRLSTIYESCPFSGFDDVSPVVAAVLRSLATQVLQLRGAARNDEAEASDISKDAQPAPVQPHATSSSLRASARGTSTSSLMPAFNRSAPTDGHGKAGVVDRVTPLAALEKRKKASMFAAATAGPNHSPSETAGRTNGEEAELHRVDLDAGRNGDADAAACMASEASASVASSVCEDAASILSDIRARYGL” belongs “not soluble”; to “MAHHHHHHMLRNALSCFLEQLELARLTETLPSNIDYAELVAMVQQRLQGAPGKTLGVFEHLRAKEIRLPEPDNPDYAVASMSAPLTVFLFDIEGTTTPLPFVQKVLMPLAESRVEAYMAAHFPADQAFVDLLTAAAERPSSPLAKAQTAYSKAFTDALATSGARDWKDEAANEVTRSDFCAFFHHQIKRGADHAAVKVVQAAIWAEVFAEGKLQSPVFPDVNTFFRFVGGPAMAERTRIALYSSGSVAAQKLVMGHTSYGDLNPFITAYFDPLLVGTKLMPKSYMKIRTLLVEQLDIPPESMHIVFVTDNTSEASAAETSGAVESAILCVRPLNDWITFDTMLSINVPYIMSFTQLMQRNCVVDMAKLVSDTKECIKQHNIS”, “soluble”.
In the case of “MAHHHHHHMLRRNIRLRKEYLYLKKVEDEKKKYAEKIKSIKESYDKNKKIRGDLKDEESELRKNMNLYDEKSFDRKVDDEYFFCGLENPRVLITTSRNPSSTLENFAKELKLIIPNSEKINRGSYFIKDILNFARKNNITDVIILHEYKGIPRNLIICHLPFGPTLFCTIKDCKMRCEFNEKIDNISLCTPHLIFHNFHSDLGKRIMNIFKYLFPPVTMRTNKRKMPKHNSQIVKDNKLNKNININTNNNDTNQMDQMDQMNKIKFVTHTTQDDEDNNDHLQIYFKNNEYLNLQKYENNRVIVFFNKNDIIYFRHYNWEKNQTNEIVLKEIGPRFSFVVYKINKETLDSLNEDYEYIYRPFMNSRKALLT” it was “not soluble”; in that of “MAHHHHHHMLRSPQPRFPQHVPGAYPPQQQQQMPPQPQSQPQMPMNAQPPAQAIQQQLEHQDVVHDTQFDYYGQLLATASSDRTIGIHVVQNGQLQRIATLTGHEGPVWMVSWAHPRFGMALASAGYDHKAIIWKEMSQSSKQWAPVHVIDCHHGSVNAVQWAPETPMVATASSDGTVAVTVFEGGVWRDSLKLSNNSNNIAHAMGATSVSFAPMRPSLGGAVLLASGGCDSQVRLWCLQEGSPMANSFELLEVLEGHTDWVRDVAFAPLCAATRHAVLASCGQDKSVIIHRKPWDQLGALIQERQRSSSTNGPQQYLQKESGGIWERSVVLFEEPVWRLSWSPAEEVLVVTTGDSEVYILRENGEFTQPWLKTPLSEYQSGTR”, “not soluble”; in that of “MAHHHHHHMLTNLRFLELQKLLLKRFQIFKNEEITILKKDSMKTILNEWAEFLTKEQKGTNITHIPDEVLQNKKVADILRDDIECRWLVGRINVGNNQESPVGTNDVNSSCSAALARKGTALSKIDQLHFDEYPNLFHYEYPQFPYNYYDKKKMENFYSLLKFPYNDILKISKMIKRDVISPSGNAEEGEILQQGGKAQSEVLESTHVDVVNDDFMNYSSNSYVYAPSEMETSKENYHE”, “not soluble”.
Consider “MAHHHHHHMMLKVRYENFNDLRNDDEMLNISFVAHPCYYSILDLEESELFNKIVYENFCKVAEKVDIYDKNEYLSVYRRHDKKCRELHMLKSWELLKNTYRYKMPVIFKNLKDFDLYNMEKIPFYSINYNKKKKGTKENGFVVRNKKKINIIDKGKCFILDNHMIYSMTPEYIANNISKNILLNTHHIMKGNNILSLKEDDKYVKHQKVNDNPYYFKLRYHYNDDDIYCKDNYSYKRKGISPIKKKRKIEPILYNNKKMDYEEKKRILIYLDPFAGAGGNCNHMNNIFTIGCDINFYRIKQCQHNCNFYNKNVDFILCDFFNLVTHFRKGTIDVIFFSIPWGGPKYKNKKNFELNTEIMDNISIYKCIEVSVELTENLVFYLPRNVCMKELYYLYGYYKELVKNKKCVNYENDDIYKYDRKGEGGKKKKKKKKKKILS”, for which the “soluble on expression in E. coli” value is recorded as “not soluble”.
With “MAHHHHHHMMMMRPDAGRRGDRHEVTRSQWEMHNSVITDDAFLFPKMELMEELHKTQPWKKSPRYFQRVKVSVLAALQMMIHAKRGSPNVTCSNGSGVADSSAASMRNEPSRENWFEVMVLMLGHFNEDEMIVTSAFALPVDASEVECSMNDASQLYMLDFLQYHQRGGTQEGCIGWYHSHPGYTCFLSGTDVNTQQLGQTAQDPWLAIVVDPVRTISTGKLDMKAFRTFPEKYVAEQQGTSQHTQGKHWEGSTTSTWVPSERIREYGVHAHRYYELPITLVRSKDDEAQLECLWSRYWALTFCSNLFTANRKLMTKQIHQLAEVLESGVASRHQTMMKGDGYLPGHKLGSQHQRKGGGAVDDETPDGVEAFKQRSLHVRYLTSSLTSEAASGGNTAGGQKFRLSSMIFLLVLARVFLSF”, the “soluble on expression in E. coli” value was “not soluble”.
